From publication PMC5952411 (EBioMedicine, 2018)

T1: M. tuberculosis PafA (Pup ligase), wild type (M. tuberculosis H37Rv, UniProt P9WNU7 1-452)
T1 sequence: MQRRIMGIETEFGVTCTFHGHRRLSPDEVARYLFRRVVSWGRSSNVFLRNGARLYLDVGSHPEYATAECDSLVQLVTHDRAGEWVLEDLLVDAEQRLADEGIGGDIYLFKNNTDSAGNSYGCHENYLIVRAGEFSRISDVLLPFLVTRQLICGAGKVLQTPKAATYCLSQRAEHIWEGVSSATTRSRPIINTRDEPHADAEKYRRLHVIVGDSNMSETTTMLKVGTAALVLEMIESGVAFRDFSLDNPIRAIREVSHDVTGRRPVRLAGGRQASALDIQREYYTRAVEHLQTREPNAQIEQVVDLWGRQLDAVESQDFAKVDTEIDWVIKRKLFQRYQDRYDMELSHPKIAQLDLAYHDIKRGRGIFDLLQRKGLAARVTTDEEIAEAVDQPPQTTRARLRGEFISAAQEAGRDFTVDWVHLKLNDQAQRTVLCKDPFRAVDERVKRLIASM

T2: M. tuberculosis PafA S119A (M. tuberculosis H37Rv, UniProt P9WNU7 1-452, S119A)
T2 sequence: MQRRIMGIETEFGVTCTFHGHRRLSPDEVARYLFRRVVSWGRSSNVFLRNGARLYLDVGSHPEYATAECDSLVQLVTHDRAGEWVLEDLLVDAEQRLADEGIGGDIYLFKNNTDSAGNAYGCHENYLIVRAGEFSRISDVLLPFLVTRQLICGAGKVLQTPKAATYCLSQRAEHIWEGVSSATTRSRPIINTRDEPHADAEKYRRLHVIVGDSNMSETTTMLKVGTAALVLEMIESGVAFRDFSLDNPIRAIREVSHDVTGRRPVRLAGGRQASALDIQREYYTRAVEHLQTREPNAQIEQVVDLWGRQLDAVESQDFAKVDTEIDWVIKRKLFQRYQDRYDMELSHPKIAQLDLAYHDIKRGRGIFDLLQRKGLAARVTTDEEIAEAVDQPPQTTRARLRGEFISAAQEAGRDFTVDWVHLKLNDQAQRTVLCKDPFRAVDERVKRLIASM


Legend:
Assay in all cases: BLI
[1] = target: Pup^E (prokaryotic ubiquitin-like protein Pup with its C-terminal glutamine converted to glutamate), biotinylated (M. tuberculosis) (UniProt P9WHN5)
[2] = target: T1, M. tuberculosis PafA (Pup ligase), wild …
[3] = target: T2, M. tuberculosis PafA S119A

Molecule | fold KD against WT PafA [1] [fold] | binding result [2] | binding result [3]
M. tuberculosis PafA pre-incubated with AEBSF (AEBSF covalently bound at S119) (from UniProt P9WNU7 1-452) (enzyme) | 2 |  | 
Pup^E (prokaryotic ubiquitin-like protein Pup with its C-terminal glutamine converted to glutamate), biotinylated (natural protein, biotinylated with EZLink Sulfo-NHS-LC-Biotin (sites not given)) MAQEQTKRGGGGGDDDDIAGSTAAGQERREKLTEETDDLLDEIDDVLEENAEDFVRAYVQKGGE |  | binds | binds
